Results on 7 molecules are retold here after paper PMC9338935, “Structural determinants of DNA recognition by the NO sensor NsrR and related Rrf2-type [FeS]-transcription factors” (Communications Biology, 2022).

As a reminder, the stoichiometry N is the number of molecules, sites or subunits per partner or assembly.

Series [1] has as its target T1, [4Fe-4S]-NsrR (ScNsrR) (Streptomyces coelicolor, UniProt Q9L132 1-148).
T1 sequence: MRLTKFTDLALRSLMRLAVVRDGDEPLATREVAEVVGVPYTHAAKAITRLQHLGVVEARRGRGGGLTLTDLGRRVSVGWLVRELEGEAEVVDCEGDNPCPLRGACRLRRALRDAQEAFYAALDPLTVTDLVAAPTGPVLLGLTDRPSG
Kind of series: EMSA; [4Fe-4S] cluster; EMSA: 10 mM Tris, 54 mM KCl, 0.3% glycerol, 1.32 mM GSH, pH 7.5, on ice, ~4 nM DNA, up to ~20-fold molar excess [4Fe-4S] NsrR. Crystal complex: 50 mM Tris pH 8.0, 500 mM NaCl, 5% glycerol, 20 C, anaerobic; grown in PEG, 30 mM MgCl2, 30 mM CaCl2, MOPS/HEPES pH 8.0. Conditions: protein: recombinant; chain copies: 2; label: 6-FAM (from PCR primers); blunt. Background: Mobility shift assays separate free from complexed probe on a gel.

Series [2] concerns the target T1, [4Fe-4S]-NsrR (ScNsrR). Kind of series: EMSA; [4Fe-4S] cluster; no clear difference from wild type; EMSA: 10 mM Tris, 54 mM KCl, 0.3% glycerol, 1.32 mM GSH, pH 7.5, on ice, ~4 nM DNA, up to ~20-fold molar excess [4Fe-4S] NsrR. Crystal complex: 50 mM Tris pH 8.0, 500 mM NaCl, 5% glycerol, 20 C, anaerobic; grown in PEG, 30 mM MgCl2, 30 mM CaCl2, MOPS/HEPES pH 8.0. The conditions noted are these: protein: recombinant; chain copies: 2; label: 6-FAM (from PCR primers); blunt.

Series [3] deals with T1, [4Fe-4S]-NsrR (ScNsrR). The experiment in a line: EMSA; [4Fe-4S] cluster; essentially stoichiometric, no significant difference; EMSA: 10 mM Tris, 54 mM KCl, 0.3% glycerol, 1.32 mM GSH, pH 7.5, on ice, ~4 nM DNA, up to ~20-fold molar excess [4Fe-4S] NsrR. Crystal complex: 50 mM Tris pH 8.0, 500 mM NaCl, 5% glycerol, 20 C, anaerobic; grown in PEG, 30 mM MgCl2, 30 mM CaCl2, MOPS/HEPES pH 8.0. Conditions: protein: recombinant; chain copies: 2; label: 6-FAM (from PCR primers); blunt.

Series [4] deals with the molecule itself. The experiment in a line: crystal structure; [4Fe-4S]-ScNsrR dimer complexed with a 23 bp hmpA1 operator dsDNA fragment; 3.0 Å; crystallised anaerobically; space group P6_(5).
For series [5], the target named is T1, [4Fe-4S]-NsrR (ScNsrR). Kind of series: X-ray crystallography; [4Fe-4S] cluster; EMSA: 10 mM Tris, 54 mM KCl, 0.3% glycerol, 1.32 mM GSH, pH 7.5, on ice, ~4 nM DNA, up to ~20-fold molar excess [4Fe-4S] NsrR. Crystal complex: 50 mM Tris pH 8.0, 500 mM NaCl, 5% glycerol, 20 C, anaerobic; grown in PEG, 30 mM MgCl2, 30 mM CaCl2, MOPS/HEPES pH 8.0. Conditions: protein: recombinant; chain copies: 2; blunt.

B1: Av003 wild type hmpA1 probe (dsDNA)
DNA 1: CTAAAACGACGGCCAGTCGGGATGACGGGCGGCGGCCCCCTGAGGCCGTCGAGCTGTGGCCTAAAACACGAATATCATCTACCAATTAAGGAGTCGCTGTGCTCTCCGAACAGTCCGTTCCCGTGGTCCGAGCCGTCATAGCTGTTTCCTG
DNA 2: CAGGAAACAGCTATGACGGCTCGGACCACGGGAACGGACTGTTCGGAGAGCACAGCGACTCCTTAATTGGTAGATGATATTCGTGTTTTAGGCCACAGCTCGACGGCCTCAGGGGGCCGCCGCCCGTCATCCCGACTGGCCGTCGTTTTAG
As to B1, the binding result in series [4Fe-4S]-NsrR (ScNsrR) [1] is recorded as “binds”.

B2: Av005 hmpXT2 probe (dsDNA)
DNA 1: CTAAAACGACGGCCAGTCGGGATGACGGGCGGCGGCCCCCTGAGGCCGTCGAGCTGTGGCCTAAAACACGAAAATCATTTACCAATTAAGGAGTCGCTGTGCTCTCCGAACAGTCCGTTCCCGTGGTCCGAGCCGTCATAGCTGTTTCCTG
DNA 2: CAGGAAACAGCTATGACGGCTCGGACCACGGGAACGGACTGTTCGGAGAGCACAGCGACTCCTTAATTGGTAAATGATTTTCGTGTTTTAGGCCACAGCTCGACGGCCTCAGGGGGCCGCCGCCCGTCATCCCGACTGGCCGTCGTTTTAG
For the molecule B2, in series [4Fe-4S]-NsrR (ScNsrR) [2], the binding result was “binds”.

B3: Av004 hmpXT1 probe (dsDNA)
DNA 1: CTAAAACGACGGCCAGTCGGGATGACGGGCGGCGGCCCCCTGAGGCCGTCGAGCTGTGGCCTAAAACACGAATAACTTCTACCAATTAAGGAGTCGCTGTGCTCTCCGAACAGTCCGTTCCCGTGGTCCGAGCCGTCATAGCTGTTTCCTG
DNA 2: CAGGAAACAGCTATGACGGCTCGGACCACGGGAACGGACTGTTCGGAGAGCACAGCGACTCCTTAATTGGTAGAAGTTATTCGTGTTTTAGGCCACAGCTCGACGGCCTCAGGGGGCCGCCGCCCGTCATCCCGACTGGCCGTCGTTTTAG
As to B3, the binding result in series [4Fe-4S]-NsrR (ScNsrR) [2] is “binds”.

B4: Av007 hmpG/C probe (dsDNA)
DNA 1: CTAAAACGACGGCCAGTCGGGATGACGGGCGGCGGCCCCCTGAGGCCGTCGAGCTGTGGCCTAAAACACGAACGCCGCCTACCAATTAAGGAGTCGCTGTGCTCTCCGAACAGTCCGTTCCCGTGGTCCGAGCCGTCATAGCTGTTTCCTG
DNA 2: CAGGAAACAGCTATGACGGCTCGGACCACGGGAACGGACTGTTCGGAGAGCACAGCGACTCCTTAATTGGTAGGCGGCGTTCGTGTTTTAGGCCACAGCTCGACGGCCTCAGGGGGCCGCCGCCCGTCATCCCGACTGGCCGTCGTTTTAG
B4: in series [4Fe-4S]-NsrR (ScNsrR) [3], the binding result is given as “binds”.

B5: Av006 hmpA/T probe (dsDNA)
DNA 1: CTAAAACGACGGCCAGTCGGGATGACGGGCGGCGGCCCCCTGAGGCCGTCGAGCTGTGGCCTAAAACACGAATATTATTTACCAATTAAGGAGTCGCTGTGCTCTCCGAACAGTCCGTTCCCGTGGTCCGAGCCGTCATAGCTGTTTCCTG
DNA 2: CAGGAAACAGCTATGACGGCTCGGACCACGGGAACGGACTGTTCGGAGAGCACAGCGACTCCTTAATTGGTAAATAATATTCGTGTTTTAGGCCACAGCTCGACGGCCTCAGGGGGCCGCCGCCCGTCATCCCGACTGGCCGTCGTTTTAG
B5: in series [4Fe-4S]-NsrR (ScNsrR) [3], the binding result was “binds”.

B6: [4Fe-4S]-NsrR from Streptomyces coelicolor (natural protein)
chain: MRLTKFTDLALRSLMRLAVVRDGDEPLATREVAEVVGVPYTHAAKAITRLQHLGVVEARRGRGGGLTLTDLGRRVSVGWLVRELEGEAEVVDCEGDNPCPLRGACRLRRALRDAQEAFYAALDPLTVTDLVAAPTGPVLLGLTDRPSG
notes: NsrR, NO-sensing Rrf2 family transcription factor of Streptomyces coelicolor; also called ScNsrR; [4Fe-4S]-ScNsrR
For the molecule B6, the “stoichiometry N” value in series [4] stood at 2.

B7: hmpA1 operator 23 bp (dsDNA)
DNA 1: AACACGAATATCATCTACCAATT
DNA 2: AATTGGTAGATGATATTCGTGTT
Consider B7, for which the binding result in series [4Fe-4S]-NsrR (ScNsrR) [5] was “binds”.
